Data set [1] has as its system HeLa Kyoto. The experiment in a line: thermal stability score vs G1/S (z-score of summed log2 fold changes over temperatures); higher = more thermally stable than in G1/S.
The subject of data set [2] is HeLa Kyoto. The data set is described as follows: solubility in G1/S (NP-40 vs SDS abundance) (log2 ratio); higher = more soluble. To be noted: cell cycle stage: G1/S.
Data set [3] has as its system HeLa Kyoto. The experiment in a line: melting temperature (median over replicates), in situ; higher = more thermally stable.
Data set [4] deals with HeLa Kyoto. The data set is described as follows: solubility change mitosis vs G1/S (difference of NP-40 vs SDS log2 ratios) (log2 ratio difference); higher = more soluble in mitosis.
[5] abbreviates: cell cycle stage: early G1 (4.5 h after nocodazole release).
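Wherever melting temperature (median over replicates), in situ is given: HeLa Kyoto cells synchronized by double thymidine or nocodazole block, proteins quantified by TMT10plex mass spectrometry, three independent biological replicates.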
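Wherever solubility change mitosis vs G1/S (difference of NP-40 vs SDS log2 ratios) is given: synchronized HeLa Kyoto cells (double thymidine block for G1/S, nocodazole release for mitosis), protein amounts in NP-40 versus SDS lysates quantified by mass spectrometry, three biological replicates.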
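Wherever solubility in G1/S (NP-40 vs SDS abundance) is given: HeLa Kyoto cells arrested at G1/S by double thymidine block, proteins quantified by TMT10plex mass spectrometry in mild NP-40 versus SDS extracts, three biological replicates.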
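Wherever thermal stability score vs G1/S (z-score of summed log2 fold changes over temperatures) is given: synchronized HeLa Kyoto cells, proteins quantified by TMT10plex mass spectrometry, three biological replicates, mitosis taken 0.5 h after nocodazole release, G1/S directly after double thymidine block.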

Turning to “MAARQAVGSGAQETCGLDRILEALKLLLSPGGSGSSSLQVTKHDVLLATLKSNLSALEDKFLKDPQWKNLKLLRDEIADKAEWPQNSVDVTWSFTSQTLLLLLCLKETMIRLAANFNPGKPNPRTPEVAPALSPDALSISQQKTVQFVLQFVVTLGICPYLMPGVGVPLRYRTEFGAVVQDVVCFDAAPDATRRLYTSCKALLNVAQHTSLGSLIFCHHFGDIAAGLCQLGFCPTKRKLLTPAEEVLTEEERTLSRGALRDMLDQVYQPLAVRELLILQGGPPQSCTDVKTQMRCRAPAWLRRLCGQLLSERLMRPNGVQAVVRGILEGAGAGAAGGSDAEVTAADWKKCDLIAKILASCPQQSLSPENYYRDICPQVLDLFHFQDKLTARQFQRVATTTFITLSRERPHLAAKYLLQPVLAPLHRCLNTAELSESDMVPGTILVTEEELSRCIEDVFKVYVVGNEPLTVLMDSLLPVLGVLFLLYCFTKQSVSHIRSLCQEILLWILGKLERKKAIASLKGFAGLDKAVPSLHSLCQFRVATQGGIMITIKEAISDEDEDEALYQKVSSEQGRVEHLGDLLSHCQECGLAGDFFIFCLKELTHVASENETELKTEPFSSKSLLELEQHQTLLVEGQERKLLVLQLMAVLCERMSEQIFTNVTQVVDFVAATLQRACASLAHQAESTVESQTLSMSMGLVAVMLGGAVQLKSSDFAVLKQLLPLLEKVSNTYPDPVIQELAVDLRITISTHGAFATEAVSMAAQSTLNRKDLEGKIEEQQQTSHERPTDVAHSHLEQQQSHETAPQTGLQSNAPIIPQGVNEPSTTTSQKSGSVTTEQLQEVLLSAYDPQIPTRAAALRTLSHWIEQREAKALEMQEKLLKIFLENLEHEDTFVYLSAIQGVALLSDVYPEKILPDLLAQYDSSKDKHTPETRMKVGEVLMRIVRALGDMVSKYREPLIHTFLRGVRDPDGAHRASSLANLGELCQRLDFLLGSVVHEVTACLIAVAKTDGEVQVRRAAIHVVVLLLRGLSQKATEVLSAVLKDLYHLLKHVVCLEPDDVAKLHAQLALEELDDIMKNFLFPPQKLEKKIMVLP [TANGO6]”, the thermal stability score came to 0.0292 in the data set with HeLa Kyoto [1] (setting [5]) and 0.767 in the data set with HeLa Kyoto [1] (cell cycle stage: mitosis). Further, the “solubility in G1/S (log2)” value with HeLa Kyoto [2] was -0.171. For the same sequence, the melting temperature is 50.6 °C in the data set with HeLa Kyoto [3] (cell cycle stage: G1/S) and 50.3 °C with HeLa Kyoto [3] (cell cycle stage: mitosis). The “solubility change mitosis (log2)” value in the data set on HeLa Kyoto [4] is -0.193.
As for “MAAGGRMEDGSLDITQSIEDDPLLDAQLLPHHSLQAHFRPRFHPLPTVIIVNLLWFIHLVFVVLAFLTGVLCSYPNPNEDKCPGNYTNPLKVQTVIILGKVILWILHLLLECYIQYHHSKIRNRGYNLIYRSTRHLKRLALMIQSSGNTVLLLILCMQHSFPEPGRLYLDLILAILALELICSLICLLIYTVKIRRFNKAKPEPDILEEEKIYAYPSNITSETGFRTISSLEEIVEKQGDTIEYLKRHNALLSKRLLALTSSDLGCQPSRT [TMEM192]”, the thermal stability score in the data set on HeLa Kyoto [1] (setting [5]) was 0.271; with HeLa Kyoto [1] (cell cycle stage: mitosis), -1.67. In the data set on HeLa Kyoto [2], the “solubility in G1/S (log2)” value is 0.0852. Besides, the melting temperature in the data set with HeLa Kyoto [3] (cell cycle stage: G1/S) is 55.6 °C; in the data set on HeLa Kyoto [3] (cell cycle stage: mitosis) it was 55.9 °C. Moreover, the “solubility change mitosis (log2)” value in the data set with HeLa Kyoto [4] is -0.241.
In the case of “MVDKKLVVVFGGTGAQGGSVARTLLEDGTFKVRVVTRNPRKKAAKELRLQGAEVVQGDQDDQVIMELALNGAYATFIVTNYWESCSQEQEVKQGKLLADLARRLGLHYVVYSGLENIKKLTAGRLAAAHFDGKGEVEEYFRDIGVPMTSVRLPCYFENLLSHFLPQKAPDGKSYLLSLPTGDVPMDGMSVSDLGPVVLSLLKMPEKYVGQNIGLSTCRHTAEEYAALLTKHTRKVVHDAKMTPEDYEKLGFPGARDLANMFRFYALRPDRDIELTLRLNPKALTLDQWLEQHKGDFNLL [NMRAL1]”, the thermal stability score worked out at 4.25 with HeLa Kyoto [1] (setting [5]) and 3.59 in the data set with HeLa Kyoto [1] (cell cycle stage: mitosis). In addition, in the data set on HeLa Kyoto [2], the “solubility in G1/S (log2)” value came out at 0.417. For the same sequence, the melting temperature in the data set on HeLa Kyoto [3] (cell cycle stage: G1/S) came to 48.9 °C; with HeLa Kyoto [3] (cell cycle stage: mitosis), 49.3 °C. The “solubility change mitosis (log2)” value in the data set on HeLa Kyoto [4] was -0.127.
“MAAAAGMLLLGLLQAGGSVLGQAMEKVTGGNLLSMLLIACAFTLSLVYLIRLAAGHLVQLPAGVKSPPYIFSPIPFLGHAIAFGKSPIEFLENAYEKYGPVFSFTMVGKTFTYLLGSDAAALLFNSKNEDLNAEDVYSRLTTPVFGKGVAYDVPNPVFLEQKKMLKSGLNIAHFKQHVSIIEKETKEYFESWGESGEKNVFEALSELIILTASHCLHGKEIRSQLNEKVAQLYADLDGGFSHAAWLLPGWLPLPSFRRRDRAHREIKDIFYKAIQKRRQSQEKIDDILQTLLDATYKDGRPLTDDEVAGMLIGLLLAGQHTSSTTSAWMGFFLARDKTLQKKCYLEQKTVCGENLPPLTYDQLKDLNLLDRCIKETLRLRPPIMIMMRMARTPQTVAGYTIPPGHQVCVSPTVNQRLKDSWVERLDFNPDRYLQDNPASGEKFAYVPFGAGRHRCIGENFAYVQIKTIWSTMLRLYEFDLIDGYFPTVNYTTMIHTPENPVIRYKRRSK [CYP51A1]”: the thermal stability score in the data set with HeLa Kyoto [1] (setting [5]) was 2.55; in the data set on HeLa Kyoto [1] (cell cycle stage: mitosis) it was 3.17. In addition, in the data set on HeLa Kyoto [2], the “solubility in G1/S (log2)” value was -0.38. For the same sequence, the results for the melting temperature with HeLa Kyoto [3] (cell cycle stage: G1/S) and in the data set on HeLa Kyoto [3] (cell cycle stage: mitosis) were 48.4 °C and 50 °C, respectively. Further, the “solubility change mitosis (log2)” value with HeLa Kyoto [4] is 0.0784.
In the case of “MKPLVVFVLGGPGAGKGTQCARIVEKYGYTHLSAGELLRDERKNPDSQYGELIEKYIKEGKIVPVEITISLLKREMDQTMAANAQKNKFLIDGFPRNQDNLQGWNKTMDGKADVSFVLFFDCNNEICIERCLERGKSSGRSDDNRESLEKRIQTYLQSTKPIIDLYEEMGKVKKIDASKSVDEVFDEVVQIFDKEG [CMPK1]”, the thermal stability score with HeLa Kyoto [1] (setting [5]) came to 1.52; in the data set with HeLa Kyoto [1] (cell cycle stage: mitosis), 0.905. Further, the “solubility in G1/S (log2)” value with HeLa Kyoto [2] turned out to be 0.272. For the same sequence, the melting temperature with HeLa Kyoto [3] (cell cycle stage: G1/S) worked out at 51.1 °C; with HeLa Kyoto [3] (cell cycle stage: mitosis), 52.2 °C. The “solubility change mitosis (log2)” value with HeLa Kyoto [4] was 0.065.
For the sequence “MAWRGWAQRGWGCGQAWGASVGGRSCEELTAVLTPPQLLGRRFNFFIQQKCGFRKAPRKVEPRRSDPGTSGEAYKRSALIPPVEETVFYPSPYPIRSLIKPLFFTVGFTGCAFGSAAIWQYESLKSRVQSYFDGIKADWLDSIRPQKEGDFRKEINKWWNNLSDGQRTVTGIIAANVLVFCLWRVPSLQRTMIRYFTSNPASKVLCSPMLLSTFSHFSLFHMAANMYVLWSFSSSIVNILGQEQFMAVYLSAGVISNFVSYVGKVATGRYGPSLGASGAIMTVLAAVCTKIPEGRLAIIFLPMFTFTAGNALKAIIAMDTAGMILGWKFFDHAAHLGGALFGIWYVTYGHELIWKNREPLVKIWHEIRTNGPKKGGGSK [PARL]”, the thermal stability score was -0.187 in the data set on HeLa Kyoto [1] (setting [5]) and -2.36 in the data set with HeLa Kyoto [1] (cell cycle stage: mitosis). Moreover, in the data set with HeLa Kyoto [2], the “solubility in G1/S (log2)” value was -0.0323. Further, the melting temperature in the data set with HeLa Kyoto [3] (cell cycle stage: G1/S) was 54.9 °C; in the data set with HeLa Kyoto [3] (cell cycle stage: mitosis), 55.8 °C. The “solubility change mitosis (log2)” value with HeLa Kyoto [4] is -0.267.

The values are drawn from the supplement of paper PMC5998384.
